Results published in the supplement of paper PMC10065799, “High-throughput profiling of sequence recognition by tyrosine kinases and SH2 domains using bacterial peptide display” (eLife, 2023).

Tests used:
Fes = Fes (UniProt P07332); assay: phosphorylation enrichment, bacterial display (enrichment ratio); higher = better substrate or ligand; peptides without Tyr show the background
EPHB2 = EPHB2 (UniProt P29323); assay: as above
c-Src = assay: as above
Hck = Hck (UniProt P08631); assay: as above
AncSZ = assay: as above
FGFR1 = FGFR1 (UniProt P11362); assay: as above
EPHB1 = EPHB1 (UniProt P54762); assay: as above
MERTK = MERTK (UniProt Q12866); assay: as above
Jak2 = Jak2 (UniProt O60674); assay: as above
FGFR3 = FGFR3 (UniProt P22607); assay: as above
Fyn = Fyn (UniProt P06241); assay: as above
c-Abl (mouse) = assay: as above
Fer (mouse) = assay: as above
c-Src SH2 = assay: SH2 binding enrichment of the phosphorylated peptide, bacterial display (enrichment ratio); higher = better substrate or ligand; peptides without Tyr show the background
Grb2 SH2 = Grb2 SH2 (UniProt P62993); assay: as above
SHP2-C SH2 = assay: as above
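For SH2 binding enrichment of the phosphorylated peptide, bacterial display in this document: peptide library displayed on the E. coli surface as eCPX fusions, selected cells deep-sequenced, score is each peptide's frequency after selection divided by its frequency in the input.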
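For phosphorylation enrichment, bacterial display in this document: 11-residue human phosphosite peptides and single-mutation variants displayed on the E. coli surface, counted by deep sequencing, each peptide's frequency after selection divided by its frequency in the unselected input library; frequency after pTyr selection over input frequency; kinase dosed for 20-30% of maximal phosphorylation in three min.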

Chain of FGFR3 (P22607 whole entry, looked up): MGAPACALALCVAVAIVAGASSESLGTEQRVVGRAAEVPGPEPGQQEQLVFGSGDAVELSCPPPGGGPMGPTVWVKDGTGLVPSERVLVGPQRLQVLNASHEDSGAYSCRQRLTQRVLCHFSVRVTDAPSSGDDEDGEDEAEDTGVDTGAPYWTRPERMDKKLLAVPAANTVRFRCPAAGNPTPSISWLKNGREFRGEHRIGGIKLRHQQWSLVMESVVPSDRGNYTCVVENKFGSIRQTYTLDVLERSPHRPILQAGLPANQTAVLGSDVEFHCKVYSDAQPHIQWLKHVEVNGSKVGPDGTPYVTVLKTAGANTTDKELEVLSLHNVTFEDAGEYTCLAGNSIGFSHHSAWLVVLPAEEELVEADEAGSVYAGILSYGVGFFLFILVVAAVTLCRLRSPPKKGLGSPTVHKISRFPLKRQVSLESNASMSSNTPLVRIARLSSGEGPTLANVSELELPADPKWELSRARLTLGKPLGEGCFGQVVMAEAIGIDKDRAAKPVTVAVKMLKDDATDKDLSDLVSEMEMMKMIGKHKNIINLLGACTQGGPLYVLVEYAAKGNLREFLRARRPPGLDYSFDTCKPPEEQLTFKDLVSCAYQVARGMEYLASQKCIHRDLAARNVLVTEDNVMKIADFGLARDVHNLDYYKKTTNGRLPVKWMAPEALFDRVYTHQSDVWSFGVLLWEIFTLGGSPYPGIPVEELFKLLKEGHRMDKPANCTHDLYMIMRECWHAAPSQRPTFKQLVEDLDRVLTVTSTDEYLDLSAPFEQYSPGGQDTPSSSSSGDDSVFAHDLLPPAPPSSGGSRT
Chain of Fes (P07332 whole entry, looked up): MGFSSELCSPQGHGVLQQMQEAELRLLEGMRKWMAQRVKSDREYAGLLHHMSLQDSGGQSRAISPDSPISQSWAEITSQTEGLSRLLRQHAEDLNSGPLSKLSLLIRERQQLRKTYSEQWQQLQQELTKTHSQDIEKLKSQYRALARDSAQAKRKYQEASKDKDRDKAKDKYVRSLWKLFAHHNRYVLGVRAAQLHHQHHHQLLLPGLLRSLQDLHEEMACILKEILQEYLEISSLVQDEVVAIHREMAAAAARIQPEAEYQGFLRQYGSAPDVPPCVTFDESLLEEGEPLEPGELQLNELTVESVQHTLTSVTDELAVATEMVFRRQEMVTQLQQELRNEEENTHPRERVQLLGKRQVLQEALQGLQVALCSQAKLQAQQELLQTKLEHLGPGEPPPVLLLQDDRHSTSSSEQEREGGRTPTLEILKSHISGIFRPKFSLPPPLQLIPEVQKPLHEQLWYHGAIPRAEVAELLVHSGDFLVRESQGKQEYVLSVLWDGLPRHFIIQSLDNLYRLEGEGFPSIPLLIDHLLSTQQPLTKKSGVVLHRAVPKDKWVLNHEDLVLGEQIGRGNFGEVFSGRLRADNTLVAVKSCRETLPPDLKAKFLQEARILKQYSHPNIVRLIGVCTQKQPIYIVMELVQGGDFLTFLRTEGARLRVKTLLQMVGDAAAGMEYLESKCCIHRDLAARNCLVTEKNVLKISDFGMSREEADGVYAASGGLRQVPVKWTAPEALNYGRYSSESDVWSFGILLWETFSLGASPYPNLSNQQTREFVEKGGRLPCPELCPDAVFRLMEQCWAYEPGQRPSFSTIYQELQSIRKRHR
Chain of MERTK (Q12866 whole entry, looked up): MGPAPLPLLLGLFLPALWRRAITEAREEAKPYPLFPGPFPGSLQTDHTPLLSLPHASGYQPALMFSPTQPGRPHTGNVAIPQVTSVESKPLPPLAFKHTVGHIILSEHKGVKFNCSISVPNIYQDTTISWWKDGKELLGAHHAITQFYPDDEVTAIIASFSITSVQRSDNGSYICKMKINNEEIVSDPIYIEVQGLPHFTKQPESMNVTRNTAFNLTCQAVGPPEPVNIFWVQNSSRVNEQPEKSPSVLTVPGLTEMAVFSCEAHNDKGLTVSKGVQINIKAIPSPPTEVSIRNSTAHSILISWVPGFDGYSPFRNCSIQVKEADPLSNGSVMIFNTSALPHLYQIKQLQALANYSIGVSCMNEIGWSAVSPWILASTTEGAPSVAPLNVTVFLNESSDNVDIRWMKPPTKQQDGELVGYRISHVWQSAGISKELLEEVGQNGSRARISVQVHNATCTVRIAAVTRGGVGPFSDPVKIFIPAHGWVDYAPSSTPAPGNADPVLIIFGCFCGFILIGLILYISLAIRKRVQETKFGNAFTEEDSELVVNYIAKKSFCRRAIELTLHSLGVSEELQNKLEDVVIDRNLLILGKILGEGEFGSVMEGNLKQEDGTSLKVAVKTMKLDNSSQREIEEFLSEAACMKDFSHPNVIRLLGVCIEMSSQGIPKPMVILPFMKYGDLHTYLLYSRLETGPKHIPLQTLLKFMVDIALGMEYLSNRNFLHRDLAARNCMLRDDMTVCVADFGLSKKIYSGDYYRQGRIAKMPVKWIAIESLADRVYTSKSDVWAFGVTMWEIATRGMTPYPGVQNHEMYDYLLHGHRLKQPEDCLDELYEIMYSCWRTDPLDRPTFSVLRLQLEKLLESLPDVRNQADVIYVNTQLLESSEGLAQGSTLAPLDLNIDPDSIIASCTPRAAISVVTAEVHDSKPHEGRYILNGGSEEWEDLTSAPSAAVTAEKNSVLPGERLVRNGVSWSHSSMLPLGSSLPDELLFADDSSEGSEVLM
Chain of Hck (P08631 whole entry, looked up): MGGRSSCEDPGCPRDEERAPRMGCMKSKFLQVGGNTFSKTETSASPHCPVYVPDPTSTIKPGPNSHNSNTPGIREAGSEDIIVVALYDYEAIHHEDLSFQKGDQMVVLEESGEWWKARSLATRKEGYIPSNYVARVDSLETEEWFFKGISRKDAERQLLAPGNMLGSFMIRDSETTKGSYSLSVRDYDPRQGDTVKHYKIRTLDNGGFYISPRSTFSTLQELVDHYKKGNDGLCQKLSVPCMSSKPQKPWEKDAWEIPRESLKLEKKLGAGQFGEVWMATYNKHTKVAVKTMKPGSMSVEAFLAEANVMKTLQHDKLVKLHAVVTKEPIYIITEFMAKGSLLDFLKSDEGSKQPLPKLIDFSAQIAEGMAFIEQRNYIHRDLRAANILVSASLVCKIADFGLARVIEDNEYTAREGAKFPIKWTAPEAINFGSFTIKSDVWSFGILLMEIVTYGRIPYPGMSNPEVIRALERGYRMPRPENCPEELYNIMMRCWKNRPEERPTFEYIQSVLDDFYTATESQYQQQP
Chain of Grb2 SH2 (P62993 whole entry, looked up): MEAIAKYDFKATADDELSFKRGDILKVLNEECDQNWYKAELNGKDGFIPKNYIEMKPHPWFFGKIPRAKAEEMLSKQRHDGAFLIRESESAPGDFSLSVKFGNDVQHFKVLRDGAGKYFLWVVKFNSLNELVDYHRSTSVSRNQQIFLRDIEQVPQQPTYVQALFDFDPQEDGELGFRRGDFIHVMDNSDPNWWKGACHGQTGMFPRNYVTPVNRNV
Chain of FGFR1 (P11362 whole entry, looked up): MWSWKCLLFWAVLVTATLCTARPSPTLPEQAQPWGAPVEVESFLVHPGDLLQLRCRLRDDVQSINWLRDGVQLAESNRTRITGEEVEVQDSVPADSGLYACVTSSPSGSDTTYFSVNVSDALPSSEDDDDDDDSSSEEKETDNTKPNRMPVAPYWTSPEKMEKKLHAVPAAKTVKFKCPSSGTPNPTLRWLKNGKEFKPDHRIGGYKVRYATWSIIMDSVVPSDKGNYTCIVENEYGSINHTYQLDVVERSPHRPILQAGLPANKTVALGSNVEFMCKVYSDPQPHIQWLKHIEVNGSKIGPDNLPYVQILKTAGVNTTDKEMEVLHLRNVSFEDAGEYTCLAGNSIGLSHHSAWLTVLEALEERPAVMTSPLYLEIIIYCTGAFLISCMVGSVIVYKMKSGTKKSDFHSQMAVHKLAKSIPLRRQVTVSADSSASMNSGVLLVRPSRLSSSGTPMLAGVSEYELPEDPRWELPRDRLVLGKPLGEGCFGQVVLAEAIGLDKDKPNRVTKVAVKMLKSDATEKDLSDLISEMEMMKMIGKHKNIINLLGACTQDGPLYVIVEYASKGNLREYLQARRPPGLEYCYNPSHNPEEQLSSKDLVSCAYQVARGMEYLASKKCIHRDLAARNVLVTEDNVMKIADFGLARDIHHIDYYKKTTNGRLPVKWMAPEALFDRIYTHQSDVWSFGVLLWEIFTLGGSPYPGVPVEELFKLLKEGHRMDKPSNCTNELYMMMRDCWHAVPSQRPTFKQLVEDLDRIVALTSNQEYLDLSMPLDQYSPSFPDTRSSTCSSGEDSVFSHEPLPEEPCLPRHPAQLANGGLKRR
Chain of Fyn (P06241 whole entry, looked up): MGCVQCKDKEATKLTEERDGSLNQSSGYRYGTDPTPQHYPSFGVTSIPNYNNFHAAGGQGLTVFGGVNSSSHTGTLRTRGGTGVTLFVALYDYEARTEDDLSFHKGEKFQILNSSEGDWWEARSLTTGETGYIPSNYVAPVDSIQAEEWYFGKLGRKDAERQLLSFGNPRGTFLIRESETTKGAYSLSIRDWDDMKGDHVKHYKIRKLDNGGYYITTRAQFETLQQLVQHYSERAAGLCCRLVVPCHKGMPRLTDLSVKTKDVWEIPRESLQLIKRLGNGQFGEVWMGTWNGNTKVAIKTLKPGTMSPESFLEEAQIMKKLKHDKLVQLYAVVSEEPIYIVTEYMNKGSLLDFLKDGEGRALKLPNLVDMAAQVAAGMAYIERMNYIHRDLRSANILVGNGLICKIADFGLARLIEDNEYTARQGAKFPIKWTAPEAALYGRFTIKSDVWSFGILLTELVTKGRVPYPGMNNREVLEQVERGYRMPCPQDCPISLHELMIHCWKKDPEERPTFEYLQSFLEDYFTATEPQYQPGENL

| Sequence | phosphorylation enrichment (Fes) | phosphorylation enrichment (EPHB2) | phosphorylation enrichment (c-Src) | phosphorylation enrichment (Hck) | phosphorylation enrichment (AncSZ) | phosphorylation enrichment (FGFR1) | phosphorylation enrichment (EPHB1) | phosphorylation enrichment (MERTK) | phosphorylation enrichment (Jak2) | phosphorylation enrichment (FGFR3) | phosphorylation enrichment (Fyn) | phosphorylation enrichment (c-Abl (mouse)) | phosphorylation enrichment (Fer (mouse)) | SH2 binding enrichment (c-Src SH2) | SH2 binding enrichment (Grb2 SH2) | SH2 binding enrichment (SHP2-C SH2) |
| --- | --- | --- | --- | --- | --- | --- | --- | --- | --- | --- | --- | --- | --- | --- | --- | --- |
| VVKLAYNENDN [CAMKK2_Y183] | 0.897 | 0.55 | 0.404 | 0.527 | 0.856 | 0.518 | 0.449 | 0.374 | 0.624 | 0.672 | 0.478 | 0.592 | 0.484 | 0.408 | 0.904 | 0.622 |
| VNYGAYINYFK [GLB1_Y488_D491Y] | 1.06 | 2.03 | 1.08 | 1.1 | 0.894 | 0.905 | 1.9 | 0.629 | 1.7 | 0.986 | 1.22 | 0.941 | 0.488 | 1.23 | 3.13 | 1.12 |
| RRNNSYTCFTA [SLC20A2_Y386_YF] | 1.68 | 1.65 | 1.69 | 0.771 | 2.81 | 0.886 | 0.96 | 1.3 | 1.95 | 1.33 | 1.19 | 1.86 | 0.734 | 0.695 | 0.7 | 0.509 |
| GYEEAYSVSKK [PAFAH1B1_Y28_F31S] | 1.01 | 0.432 | 0.601 | 0.447 | 0.893 | 0.364 | 0.491 | 0.367 | 0.661 | 0.607 | 0.435 | 0.536 | 0.469 | 1.85 | 0.798 | 0.796 |
| GGEAIYAAPFA [Abl_opt_1995] | 1.11 | 27.9 | 9.05 | 12.7 | 4 | 2.48 | 20.2 | 13.5 | 0.747 | 2.05 | 13.1 | 35.6 | 20.5 | 0.486 | 0.778 | 0.416 |
| CTTIHYNDMCN [TP53_Y234_Y236D] | 0.85 | 0.528 | 0.492 | 0.455 | 1.03 | 0.485 | 0.451 | 0.396 | 0.724 | 0.539 | 0.422 | 0.589 | 0.421 | 2.42 | 0.756 | 0.658 |
| ERPGVHTNVVE [F11_Y608_Y608H] | 0.964 | 0.769 | 0.388 | 0.394 | 0.794 | 0.46 | 0.598 | 0.483 | 0.777 | 0.754 | 0.517 | 0.717 | 0.474 | 0.491 | 0.849 | 0.605 |
| AVLQLYIFVAT [CFTR_Y1014_P1013L] | 1.37 | 0.599 | 0.567 | 0.562 | 1.3 | 0.462 | 0.766 | 0.498 | 1.24 | 1.09 | 0.516 | 0.837 | 0.573 | 0.439 | 1 | 0.701 |
| EATKGYLDDPT [G6PD_Y322] | 1.03 | 0.473 | 0.392 | 0.421 | 0.859 | 0.412 | 0.655 | 0.455 | 0.949 | 0.593 | 0.424 | 0.774 | 0.553 | 0.567 | 0.785 | 0.525 |
| CTTIHYNFMWN [TP53_Y234_C238W_YF] | 1.66 | 0.727 | 0.59 | 0.543 | 1.43 | 0.621 | 0.725 | 0.717 | 1.5 | 0.981 | 0.508 | 1.09 | 1.04 | 0.669 | 0.924 | 0.802 |
| WIPNQYPIISE [NOG_Y222_I220N] | 0.98 | 0.526 | 0.636 | 0.465 | 0.86 | 0.63 | 0.427 | 0.342 | 0.862 | 0.671 | 0.361 | 0.747 | 0.541 | 0.605 | 0.788 | 0.827 |
| YHRQLYHKCTH [F12_Y58] | 0.795 | 0.537 | 0.481 | 0.53 | 0.886 | 0.453 | 0.41 | 0.571 | 0.653 | 0.606 | 0.378 | 0.641 | 0.467 | 1.44 | 1.34 | 1.22 |
| SWSTSYSGYRY [NKAPL_Y91] | 0.925 | 0.619 | 1.7 | 0.701 | 0.825 | 0.707 | 0.596 | 0.461 | 0.741 | 0.656 | 0.706 | 0.652 | 0.591 | 1.03 | 1.17 | 1.88 |
| AELKLYSGAQT [ZAP70_Y178_R175L] | 0.956 | 0.571 | 0.362 | 0.646 | 0.877 | 0.39 | 0.567 | 0.395 | 0.82 | 0.595 | 0.455 | 0.526 | 0.485 | 0.518 | 0.679 | 0.637 |
| ESAAIYNPVIY [RHO_Y301_K296E] | 1.26 | 0.944 | 7.21 | 9.21 | 1.01 | 1.99 | 0.995 | 3.45 | 0.793 | 1.88 | 8.88 | 1.15 | 17.5 | 0.464 | 0.758 | 0.553 |
| EKKKFYDAKIE [CASP5_Y104_T106A_YF] | 0.803 | 0.409 | 0.466 | 0.468 | 0.751 | 0.431 | 0.4 | 0.349 | 1.05 | 0.534 | 0.369 | 0.718 | 0.435 | 0.453 | 0.686 | 0.783 |
| DDIPLYLKGGV [COX7A2_Y44_E40D] | 1.12 | 0.701 | 0.435 | 0.513 | 1.01 | 0.496 | 0.525 | 0.41 | 1.02 | 0.737 | 0.459 | 0.673 | 0.401 | 0.479 | 0.862 | 0.663 |

| Sequence | phosphorylation enrichment (Fes) | phosphorylation enrichment (EPHB2) | phosphorylation enrichment (c-Src) | phosphorylation enrichment (Hck) | phosphorylation enrichment (AncSZ) | phosphorylation enrichment (FGFR1) | phosphorylation enrichment (EPHB1) | phosphorylation enrichment (MERTK) | phosphorylation enrichment (Jak2) | phosphorylation enrichment (FGFR3) | phosphorylation enrichment (Fyn) | phosphorylation enrichment (c-Abl (mouse)) | phosphorylation enrichment (Fer (mouse)) | SH2 binding enrichment (c-Src SH2) | SH2 binding enrichment (Grb2 SH2) | SH2 binding enrichment (SHP2-C SH2) |
| --- | --- | --- | --- | --- | --- | --- | --- | --- | --- | --- | --- | --- | --- | --- | --- | --- |
| GSQERDFELVE [TSC2_Y407_Y407D] | 1.04 | 0.492 | 0.523 | 0.493 | 1.08 | 0.489 | 0.466 | 0.484 | 1.07 | 0.717 | 0.522 | 0.69 | 0.46 | 0.632 | 0.881 | 0.612 |
| SDPIIYTLENI [ADGRE1_Y534] | 1.31 | 0.559 | 5.13 | 1.49 | 0.963 | 0.491 | 0.568 | 1.43 | 0.948 | 0.724 | 7.17 | 0.653 | 7.52 | 0.519 | 0.936 | 0.777 |
| IMITDYLLLFR [INSR_Y87] | 1.18 | 0.647 | 0.481 | 0.502 | 1.21 | 1.36 | 0.678 | 0.399 | 1.55 | 1.2 | 0.467 | 0.829 | 0.513 | 1.04 | 1.38 | 1.38 |
| RKMSSYAFFVQ [HMGB1_Y16_G11R] | 1.58 | 0.352 | 0.542 | 0.466 | 1.01 | 0.644 | 0.436 | 1.19 | 0.755 | 0.737 | 0.822 | 0.667 | 0.899 | 1.42 | 1.55 | 1.24 |
| RAHARYCADAR [ACOT4_Y52] | 1.08 | 0.676 | 0.419 | 0.54 | 0.614 | 0.406 | 0.444 | 0.444 | 0.533 | 0.633 | 0.392 | 0.689 | 0.333 | 0.656 | 0.92 | 0.746 |
| RSDSSYRMSAT [NHS_Y1532] | 0.757 | 0.673 | 0.585 | 0.775 | 0.764 | 0.717 | 0.592 | 0.68 | 0.598 | 0.754 | 0.747 | 0.679 | 0.541 | 0.476 | 0.844 | 0.809 |
| PMDGEYFTLQI [TP53_Y327_L323M] | 1.95 | 0.753 | 5.21 | 2.79 | 4.04 | 12 | 1.5 | 0.604 | 4.86 | 9.07 | 4.35 | 2.02 | 1.57 | 0.394 | 0.978 | 0.407 |
| SLALFYRKVYH [RBL1_Y792] | 1.23 | 0.643 | 0.379 | 0.518 | 1.23 | 0.575 | 0.667 | 0.408 | 1.14 | 0.776 | 0.481 | 0.593 | 0.566 | 0.522 | 0.689 | 0.795 |
| QLDQRYLLVPE [DDX49_Y223] | 0.978 | 0.807 | 0.701 | 0.664 | 1.12 | 0.843 | 0.613 | 0.572 | 0.748 | 0.799 | 0.574 | 0.665 | 0.374 | 0.763 | 0.754 | 0.715 |
| KMKGDYFCFLA [YWHAG_Y130_R132C_YF] | 1.18 | 1.56 | 2.94 | 1 | 2.31 | 11.9 | 2.48 | 2.32 | 6.97 | 9.56 | 2.13 | 2.24 | 0.548 | 0.668 | 0.854 | 0.7 |
| VGTKRYVAPEV [ACVRL1_Y375_M376V] | 0.658 | 0.444 | 0.458 | 0.351 | 0.61 | 0.332 | 0.309 | 0.422 | 0.477 | 0.464 | 0.451 | 0.544 | 0.474 | 0.354 | 0.724 | 0.403 |
| EQLLDYTRTVQ [INPP5E_Y439_R435Q] | 0.815 | 0.569 | 0.438 | 0.542 | 0.969 | 0.515 | 0.557 | 0.475 | 0.976 | 0.709 | 0.469 | 0.614 | 0.494 | 0.438 | 0.904 | 0.732 |
| RLLRGYDQLAY [HLA-C_Y137_S140L] | 1.02 | 0.67 | 0.45 | 0.637 | 1.29 | 0.65 | 0.719 | 0.581 | 0.649 | 0.976 | 0.735 | 0.477 | 0.758 | 5.06 | 1.1 | 0.727 |
| CENNRYGMGAS [PDHA1_Y227_T231A] | 0.754 | 0.421 | 0.349 | 0.392 | 0.655 | 0.413 | 0.403 | 0.324 | 0.629 | 0.476 | 0.405 | 0.594 | 0.365 | 0.457 | 0.849 | 0.723 |
| NKVKFYIPFMN [NCR1_Y84_D87Y_YF] | 1.02 | 0.528 | 0.413 | 0.436 | 0.897 | 0.431 | 0.551 | 0.482 | 0.824 | 0.519 | 0.437 | 0.699 | 0.507 | 1.57 | 1.64 | 1.22 |
| LNCDRYSAGLL [PDE6A_Y275_V277A] | 0.834 | 0.481 | 0.448 | 0.39 | 0.919 | 0.396 | 0.487 | 0.378 | 0.87 | 0.612 | 0.512 | 0.673 | 0.432 | 0.419 | 0.755 | 0.595 |
